# Molecular target: Cy5-EF-Tu E348C (AV) C137A,C255V,E348C (Escherichia coli) (UniProt P0CE48)
# Conditions: native tRNA modifications; 3'-aminoacylated with Phe; Cy3 on acp3U47; FRET titration; GTP form, 100 uM GTP, 8 mM Mg, 25 C
substance,measurement,value
Phe-tRNAPhe(Cy3),Kd,11 nM

# From patent publication US10174358
